Measured values: patent EP4273162A1 (Numab Therapeutics AG, dated 2023)

How the values were obtained:
[1] = target: pre-existing anti-drug antibodies (ADAs) in human sera; test: ELISA, scFv coated, 5% human serum unspiked/spiked, anti-human IgG-HRP
[2] = target: T1, human α-Mesothelin (Acro Biosystems; MSN_H5223) (human, UniProt Q13421 296-580, limits assumed); test: SPR, MSLN immobilised, scFv as analyte, 1:1 Langmuir fit
T1 construct: also called Human MSLN; MSLN

[3] = target: T2, human α-PD-L1 Fc (Sino Biological, 10084-H02H, LC11NO2402) (human, UniProt Q9NZQ7 19-239); test: SPR, PD-L1 Fc immobilised, scFv as analyte, 1:1 Langmuir fit
T2 construct: also called Human PD-L1
T2 sequence (Q9NZQ7 19-239 limits assumed): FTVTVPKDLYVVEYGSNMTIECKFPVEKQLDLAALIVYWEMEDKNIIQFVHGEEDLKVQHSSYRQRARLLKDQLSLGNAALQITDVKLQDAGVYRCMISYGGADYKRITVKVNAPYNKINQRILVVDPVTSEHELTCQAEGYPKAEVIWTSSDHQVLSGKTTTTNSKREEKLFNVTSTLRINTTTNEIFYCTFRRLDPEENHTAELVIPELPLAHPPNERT

T1 sequence (Q13421 other isoform, or with tags, fused parts or gaps limits assumed): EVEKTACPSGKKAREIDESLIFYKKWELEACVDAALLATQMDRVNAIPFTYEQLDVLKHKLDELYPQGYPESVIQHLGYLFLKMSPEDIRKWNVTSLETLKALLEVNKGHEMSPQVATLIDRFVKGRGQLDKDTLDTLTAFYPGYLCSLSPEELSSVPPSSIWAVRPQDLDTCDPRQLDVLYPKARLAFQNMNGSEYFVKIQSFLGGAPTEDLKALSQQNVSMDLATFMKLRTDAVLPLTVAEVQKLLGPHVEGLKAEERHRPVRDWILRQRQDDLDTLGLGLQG

No of positive serum samples above 30 % CCP (positive sera of 20) [1]	No of screening positive serum samples above 30 % Inhibition (positive sera of 20) [1]	Kd [2] [nM]	Kd [3] [nM]	Binder
10	16	1.8	–	scFv 54-21-H03-sc01 (PRO1922) (scFv, also called PRO1992; PRO1922 wt) scFv: DIQMTQSPSSLSASVGDRVTITCQASESIYSSLAWYQQKPGKAPKLLIYLASTLASGVPSRFSGSGSGTDFTLTISSLQPEDFATYYCQSTDYTTSTHRNSFGTGTKVTVLGGGGGSGGGGSGGGGSGGGGSEVQLVESGGGLVQPGGSLRLSCAASGFSFSTTYYMCWVRQAPGKGLEWIGCTNTASSVRTYYATWAKGRFTISRDNSKNTVYLQMNSLRAEDTAVYYCARDMGFADYALNLWGQGTLVTVSS
6	18	–	1.5	scFv 37-20-B03-sc09.1 PRO2230 (scFv, also called PRO2330; PRO2230 wt) scFv: DIQMTQSPASLSASVGDRVTITCQASQSIGTYLAWYQQKPGKPPKLLIYRAFILASGVPSRFSGSGSGTDFTLTISSLQPEDFATYYCQSNFYSDSTTIGPNAFGTGTKVTVLGGGGGSGGGGSGGGGSGGGGSEVQLVESGGGLVQPGGSLRLSCAASGFSFNSDYWIYWVRQAPGKGLEWIASIYGGSSGNTQYASWAQGRFTISRDNSKNTVYLQMNSLRAEDTAVYFCARGYVDYGGATDLWGQGTLVTVSS
